Reference: patent US6544504B1, “Combined use of interleukin 10 and methotrexate for immuno-modulatory therapy” (Schering Corporation, priority 1999, dated 2003)
Entries after “also recorded” stand apart in the source; their conditions may differ.

Key:
Format in all cases: in vivo, human
[1] = test system: patients with active rheumatoid arthritis; assay: Safety and tolerance study of IL-10 plus stable MTX in active rheumatoid arthritis
Experimental: (§1) A multinational, multicenter, sequentially randomized, double-blind, placebo-controlled, rising multiple-dose study of IL-10 plus methotrexate (MTX) treatment was completed in patients with active rheumatoid arthritis.
(§2) Fifty patients were to receive one of five dosing regimens of IL-10 (SC) (1 μg/kg daily, 4 μg/kg daily, 8 μg/kg three times a week [TIW], 8 μg/kg daily and 20 μg/kg TIW) or placebo for 28 days, in addition to stable dosing with MTX (Treatment Phase). The patients were followed for 8 weeks after the end of IL-10 dosing (Follow-up Phase). Patients received MTX at therapeutic doses for at least 4 months prior to study entry. The dose of MTX was 12.5-25 mg/week (oral, subcutaneous or intramuscular) and remained constant throughout the study (Screening, Treatment and Follow-up Phases).
(§3) Patients were sequentially enrolled into the study in dose cohorts starting with the lowest dose of IL-10. Safety was assessed for each dose level prior to progressing to the next higher dose. Ten patients were assessed at each of the IL-10 dose cohorts: 8 received IL-10 and 2 received placebo (4:1). There was no replacement of patients.
The primary objective was to evaluate, in a dose-escalating manner, the safety and tolerance of IL-10 (SC) therapy given daily or TIW plus MTX (oral/intramuscular/SC) over a 28 day period to patients with active rheumatoid arthritis. The secondary objectives were to evaluate the effect of IL-10 on measures of rheumatoid arthritis Disease Activity, and to determine changes in the circulating levels of soluble p55 and p75 TNF receptors and IL-1 receptor antagonist. Protocol-defined responders were defined as those patients with at least 20% ACR criteria, i.e. at least 20% improvement in number of tender joints, number of swollen joints and in at least 3 of 5 RA Disease Activity measures (i.e. subject's assessment of pain, disease activity or physical function and physician's global assessment of disease activity. […]

[2] = test system: patients with active rheumatoid arthritis; assay: Rheumatoid arthritis Disease Activity / ACR response in the IL-10 plus MTX study
Experimental: as §1, §2, §3
The primary objective was to evaluate, in a dose-escalating manner, the safety and tolerance of IL-10 (SC) therapy given daily or TIW plus MTX (oral/intramuscular/SC) over a 28 day period to patients with active rheumatoid arthritis. The secondary objectives were to evaluate the effect of IL-10 on measures of rheumatoid arthritis Disease Activity, and to determine changes in the circulating levels of soluble p55 and p75 TNF receptors and IL-1 receptor antagonist. Protocol-defined responders were defined as those patients with at least 20% ACR criteria, i.e. at least 20% improvement in number of tender joints, number of swollen joints and in at least 3 of 5 RA Disease Activity measures (i.e. subject's assessment of pain, disease activity or physical function and physician's global assessment of disease activity.
Fifty patients were enrolled and sequentially randomized to receive one of the five dosing regimens of IL-10 (SC) (1 μg/kg daily, 4 μg/kg daily, 8 μg/kg TIW, 8 μg/kg daily and 20 μg/kg TIW) or placebo which formed the intent-to-treat population (ITT). Mean duration of treatment was at least 26 days for each of the treatment groups. The treatment groups were similar in demographic characteristics except for slight differences in age. Baseline characteristics of RA Disease Activity were similar for treatment groups.

[3] = test system: TNFα, IL-1β, soluble TNF p55 and p75 receptors, IL-1 receptor antagonist; assay: Ex-vivo induced proinflammatory cytokines and circulating soluble TNF receptors / IL-1 receptor antagonist; conditions: nearly all IL-10 treatment groups compared with placebo, plus MTX
Experimental: as §2
The primary objective was to evaluate, in a dose-escalating manner, the safety and tolerance of IL-10 (SC) therapy given daily or TIW plus MTX (oral/intramuscular/SC) over a 28 day period to patients with active rheumatoid arthritis. The secondary objectives were to evaluate the effect of IL-10 on measures of rheumatoid arthritis Disease Activity, and to determine changes in the circulating levels of soluble p55 and p75 TNF receptors and IL-1 receptor antagonist. […]

[4] = each IL-10 dose group plus MTX versus placebo plus MTX

IL-10: a cytokine produced by T lymphocytes; protein with sequence substantially identical to mature IL-10; most preferably recombinant human IL-10
safety and tolerance ([1]; IL-10 SC 1-20 μg/kg daily or TIW for 28 days plus stable MTX 12.5-25 mg/week): generally well tolerated; also recorded: safe and well tolerated
most frequently reported adverse events ([1]; IL-10 SC for 28 days plus stable MTX): headache, injection site reaction, nausea, musculoskeletal pain, with no dose-response relationship seen
anti-dsDNA or anti IL-10 antibodies ([1]; IL-10 SC for 28 days plus stable MTX, any time during the study): No anti-dsDNA or anti IL-10 antibodies were present
effects on rheumatoid arthritis Disease Activity (conclusion) ([2]; IL-10 in combination with MTX, greatest for 8 μg/kg TIW, 8 μg/kg daily and 20 μg/kg TIW): may have beneficial effects
protocol-defined response (percentage of responders) ([2]; after 28 days of dosing versus baseline, ITT population, compared with placebo plus MTX): trend toward a greater percentage of responders
mean change from baseline for individual clinical measures of rheumatoid arthritis disease activity ([2]; after 28 days, compared with placebo plus MTX): generally showing a greater percentage of responders than in placebo group
percent of patients having a 20% improvement in disease activity (ACR 20) [2, 4]: higher for each of the IL-10 treatment groups than for the placebo group
percent of patients having a 50% improvement in disease activity (ACR 50) [2, 4]: higher for each of the IL-10 treatment groups than for the placebo group
circulating serum levels of soluble TNF p55 and TNF p75 receptors and IL-1 receptor antagonists [3]: trend towards increased circulating serum levels
production of ex-vivo induced proinflammatory cytokines (TNFα and IL-1β) [3]: trend towards decreased production
